This assay deals with HLA-A*02:01 (Homo sapiens, UniProt P04439, D140Y/D185E/D98H/E176V/E277Q/G131W/G231S/I119V/I121R/I166T/I218V/L300P/L318F/N151K/N90K/P208A/P217A/Q86G/Q94H/R138H/R169H/T345S). Put plainly: MHC binding assay (UV-ligand exchange, ELISA, peptide exchange yield). Conditions: binding of HLA-class I restricted peptides to HLA-A*02:01. In a few lines: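 Peptide–HLA-A*02:01 complexes made by UV-ligand exchange of a UV-cleavable peptide for the test peptide. Exchange yield measured by ELISA: 100-fold diluted monomers captured on streptavidin, 1 h at 37° C., detected with HRP anti-β2m and TMB, absorbance at 450 nm.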
A general note: An ELISA detects its analyte on a solid surface through an enzyme-linked reagent.
As for “515 (LLQELVLFL; listed as Homo sapiens) [compound 515]”, the “Peptide exchange (MHC class I binding score, peptide exchange yield)” value (“Peptide exchange” below) is reported as “″+++″ (≥50% = +++)”.
Then “516 (AVGPASILKEV; listed as Homo sapiens) [compound 516]”, with “″++″ (≥20% = ++)”; and “517 (LLMPIPEGLTL; listed as Homo sapiens) [compound 517]”, with “″+++″ (≥50% = +++)”; and “518 (KLNAEVACV; listed as Homo sapiens) [compound 518]”, with “″+++″ (≥50% = +++)”.
“519 (GLLHLTLLL; listed as Homo sapiens) [compound 519]”: the “Peptide exchange” value is given as “″+++″ (≥50% = +++)”.
Then “520 (LAVHPSGVAL; listed as Homo sapiens) [compound 520]”, with “″+″ (≥10% = +)”.
Consider “521 (MLLTKLPTI; listed as Homo sapiens) [compound 521]”, for which the “Peptide exchange” value is listed as “″+++″ (≥50% = +++)”.
The value for “522 (TLWYRSPEV; listed as Homo sapiens) [compound 522]” was “″++″ (≥20% = ++)”; that for “523 (YQIPRTFTL; listed as Homo sapiens) [compound 523]” was “″++″ (≥20% = ++)”.
Then “524 (ALIENLTHQI; listed as Homo sapiens) [compound 524]”, with “″++″ (≥20% = ++)”; and “525 (VLLEAGEGLVTI; listed as Homo sapiens) [compound 525]”, with “″+++″ (≥50% = +++)”; and “526 (RLAEVGQYEQV; listed as Homo sapiens) [compound 526]”, with “″++″ (≥20% = ++)”.
Turning to “527 (FLLEPGNLEV; listed as Homo sapiens) [compound 527]”, the “Peptide exchange” value is listed as “″++++″ (≥75% = ++++)”.
Then “528 (SVAEGRALMSV; listed as Homo sapiens) [compound 528]”, with “″+++″ (≥50% = +++)”.
Regarding “529 (LLADELITV; listed as Homo sapiens) [compound 529]”, the “Peptide exchange” value is “″+++″ (≥50% = +++)”.
As to “530 (VMYADIGGMDI; listed as Homo sapiens) [compound 530]”, the “Peptide exchange” value is on record as “″+++″ (≥50% = +++)”.
The value for “531 (YTLPIASSIRL; listed as Homo sapiens) [compound 531]” was “″+++″ (≥50% = +++)”; that for “537 (TLAPGEVLRSV; listed as Homo sapiens) [compound 537]” was “″+++″ (≥50% = +++)”; that for “538 (LLLAHIIAL; listed as Homo sapiens) [compound 538]” was “″++″ (≥20% = ++)”.
On to “539 (ALFDAQAQV; listed as Homo sapiens) [compound 539]”, for which the “Peptide exchange” value is on record as “″+++″ (≥50% = +++)”.
In the case of “541 (SMLEPVPEL; listed as Homo sapiens) [compound 541]”, the “Peptide exchange” value is “″+++″ (≥50% = +++)”.
Then “542 (RVWDISTVSSV; listed as Homo sapiens) [compound 542]”, with “″+++″ (≥50% = +++)”.
Then “543 (GLLPTPITQQASL; listed as Homo sapiens) [compound 543]”, with “″+++″ (≥50% = +++)”.
The value for “544 (LLWDVPAPSL; listed as Homo sapiens) [compound 544]” was “″+++″ (≥50% = +++)”; that for “545 (LLADLLHNV; listed as Homo sapiens) [compound 545]” was “″+++″ (≥50% = +++)”.
Take “546 (VMIAGKVAVV; listed as Homo sapiens) [compound 546]”: the “Peptide exchange” value is listed as “″+++″ (≥50% = +++)”.
Then “547 (TLDITPHTV; listed as Homo sapiens) [compound 547]”, with “″+++″ (≥50% = +++)”; and “548 (ALWENPESGEL; listed as Homo sapiens) [compound 548]”, with “″++″ (≥20% = ++)”; and “549 (AMLENASDIKL; listed as Homo sapiens) [compound 549]”, with “″+++″ (≥50% = +++)”.
Then “550 (FLYDEIEAEVNL; listed as Homo sapiens) [compound 550]”, with “″+++″ (≥50% = +++)”; and “551 (KLYESLLPFA; listed as Homo sapiens) [compound 551]”, with “″+++″ (≥50% = +++)”.
With “552 (GLLDLPFRVGV; listed as Homo sapiens) [compound 552]”, the “Peptide exchange” value is “″++++″ (≥75% = ++++)”.
The value for “553 (SLLNQDLHWSL; listed as Homo sapiens) [compound 553]” was “″++++″ (≥75% = ++++)”.
Then “554 (LLMPSSEDLLL; listed as Homo sapiens) [compound 554]”, with “″+++″ (≥50% = +++)”.
Then “555 (YVLEGLKSV; listed as Homo sapiens) [compound 555]”, with “″+++″ (≥50% = +++)”.
For “556 (FLTDLEDLTL; listed as Homo sapiens) [compound 556]”, the “Peptide exchange” value is listed as “″+++″ (≥50% = +++)”.
As for “557 (KLYDDMIRL; listed as Homo sapiens) [compound 557]”, the “Peptide exchange” value was “″+++″ (≥50% = +++)”.
In the case of “558 (GLLENIPRV; listed as Homo sapiens) [compound 558]”, the “Peptide exchange” value is reported as “″+++″ (≥50% = +++)”.
Then “559 (VTVPPGPSL; listed as Homo sapiens) [compound 559]”, with “″++″ (≥20% = ++)”; and “560 (ALWDIETGQQTTT; listed as Homo sapiens) [compound 560]”, with “″+++″ (≥50% = +++)”; and “561 (YLQLTQSEL; listed as Homo sapiens) [compound 561]”, with “″+++″ (≥50% = +++)”.
With “562 (YLEELPEKLKL; listed as Homo sapiens) [compound 562]”, the “Peptide exchange” value is reported as “″+++″ (≥50% = +++)”.
In the case of “563 (WLLPYNGVTV; listed as Homo sapiens) [compound 563]”, the “Peptide exchange” value is “″+++″ (≥50% = +++)”.
Then “564 (TVTNAVVTV; listed as Homo sapiens) [compound 564]”, with “″+++″ (≥50% = +++)”; and “565 (ALQETPTSV; listed as Homo sapiens) [compound 565]”, with “″++″ (≥20% = ++)”.
